Test results as given in US20220073586A1.

Molecular target: PD-L1 antigen (coated on 96-well immunoplate) (UniProt Q9NZQ7)
Assay: single antigen ELISA, PD-L1 coated at 1 ug/mL, detection with anti-hFc-HRP

Sequence of PD-L1 antigen (coated on 96-well immunoplate) (Q9NZQ7 19-238 limits assumed): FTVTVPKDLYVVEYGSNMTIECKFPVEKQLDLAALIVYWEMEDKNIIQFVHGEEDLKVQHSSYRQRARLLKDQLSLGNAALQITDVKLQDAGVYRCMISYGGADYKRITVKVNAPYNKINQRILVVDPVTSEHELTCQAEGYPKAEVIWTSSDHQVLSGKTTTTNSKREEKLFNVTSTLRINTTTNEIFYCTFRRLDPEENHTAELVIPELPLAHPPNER

EC50 (read off the curve): 0.03 µg/mL
Substance: Tecentriq (Genetech, atezolizumab, anti-PD-L1 antibody)
